In article doi:10.1101/2021.05.31.446396 (bioRxiv, 2021):
Substitutions are numbered along the chain they refer to. Names and notes keep the numbering of the source.

B1: D2 domain of EccCb1 (35-316 residues), wild type (domain or fragment)
chain: NPVPLNELIARDRRQPLRFALGIMDEPRRHLQDVWGVDVSGAGGNIGIGGAPQTGKSTLLQTMVMSAAATHSPRNVQFYCIDLGGGGLIYLENLPHVGGVANRSEPDKVNRVVAEMQAVMRQRETTFKEHRVGSIGMYRQLRDDPSQPVASDPYGDVFLIIDGWPGFVGEFPDLEGQVQDLAAQGLAFGVHVIISTPRWTELKSRVRDYLGTKIEFRLGDVNETQIDRITREIPANRPGRAVSMEKHHLMIGVPRFDGVHSADNLVEAITAGVTQIASQHTE
B2: D2 domain of EccCb1 (35-316 residues), S91A mutant (domain or fragment)
chain: B1 chain with S57A
B3: D2 domain of EccCb1 (35-316 residues), Q87A mutant (domain or fragment)
chain: B1 chain with Q53A
B4: D2 domain of EccCb1 (35-316 residues), K90A mutant (domain or fragment)
chain: B1 chain with K56A
B5: D2 domain of EccCb1 (35-316 residues), T92A mutant (domain or fragment)
chain: B1 chain with T58A
B6: D3 domain of EccCb1 (349-580 residues), wild type (domain or fragment)
chain: EIPIGLRETDLTPAHCHMHTNPHLLIFGAAKSGKTTIAHAIARAICARNSPQQVRFMLADYRSGLLDAVPDTHLLGAGAINRNSASLDEAVQALAVNLKKRLPPTDLTTAQLRSRSWWSGFDVVLLVDDWHMIVGAAGGMPPMAPLAPLLPAAADIGLHIIVTCQMSQAYKATMDKFVGAAFGSGAPTMFLSGEKQEFPSSEFKVKRRPPGQAFLVSPDGKEVIQAPYIEPP

Biological target: the molecule itself
Assay: SEC

Protein | stoichiometry N
B1 | 2
B2 | 2
B3 | 2
B4 | 2
B5 | 2
B6 | 2
